Assay results: the supplement of paper PMC9170038

Tested on: MS2 coat protein
Assay: apparent KD of MS2 coat protein; designed switch direction (-1 OFF switch, 1 ON switch): -1; higher = weaker reporter binding
Procedure, shortened: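 RNA switches sharing common flanks were transcribed by stalled E. coli RNA polymerase on Illumina chips. A doubling series of SNAP-549-labelled MS2 coat protein, from 0.7 or 1.5 nM to 3 µM, was applied in Tris-HCl pH 7.5 buffer with KCl, MgCl2, BSA, DTT, tRNA and Tween-20. Each step lasted 0.8–1.5 h at the bottom of the series and 10–20 min at the top. Normalised cluster fluorescence was curve-fitted, giving apparent KD as the per-design median over clusters.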

[1] = Eterna round: R95, input ligand: microRNA oligo, concentration not stated
[2] = Eterna round: R95, input ligand: FMN 200 uM
[3] = Eterna round: R95, input ligand: none
[4] = input ligand: microRNA oligo, concentration not stated

Sequence | apparent KD of MS2 coat protein (input ligand: FMN 200 uM) [nM] | apparent KD of MS2 coat protein (input ligand: none) [nM] | apparent KD of MS2 coat protein [1] [nM] | apparent KD of MS2 coat protein [2] [nM] | apparent KD of MS2 coat protein [3] [nM] | apparent KD of MS2 coat protein [4] [nM]
CGGUGUAGAGGAUAUACGUGGAUGUAAAUUCAUGAUAUUUUACAUGAGGAUCACCCAUGUAGAAGGCUAUAGCG [JR_Ex2_Sub078] (Eterna round: R97, puzzle: Exclusion 2) | 74.2 | 229 | – | – | – | –
CGGUGUCAUGUAAGGAUAUCGCAUCCCAGCGGAUACGAGAAGGUACAUGAGGAUCACCCAUGUACGAUAAAAUA [Atzabian] (puzzle: Brourd's mod of Exclusion 4) | – | – | 12.5 | – | – | –
CGUACUGAAGUAAGGAUAUUGUCUCGGAUACGAAACAAGAAGGUACAUGAGGAUCACCCAUGUUGACAGUACGA [Malc #30 mod 8] (puzzle: Brourd's mod of Exclusion 4) | – | – | 14 | – | – | –
CGUACUGAAGUUAGGAUAUUGUCUCGGAUACGAAACAAGAAGGGACAUGAGGAUCACCCAUGUAGACAGUACGA [Malc #30 mod 4] (puzzle: Brourd's mod of Exclusion 4) | – | – | 27.1 | 24.7 | 27.7 | –
CGUAGCAAAGUGAGGAUAUCUAGAGCGAUAGCUCUAGAGAAGGCACAUGAGGAUCACCCAUGUGAUUAGCUACG [BmEx4/9-A4] (Eterna round: R97, puzzle: Brourd's mod of Exclusion 4) | 146 | 27.8 | – | – | – | –
CGUAUGUGAGGAUAUGACAAUGGUAUCUUCGGAUACCAUUGUCAGAAGGUACAUGAGGAUCACCCAUGUAGAUC [Exclusion 4 - Mod Brourd Ex 4-3: 20 v.3] (puzzle: Exclusion 4) | – | – | 24 | – | – | –
CGUAUGUGAGGAUAUGGUCUCGAUGACAUGAGGAUCACCCAUGUAACAUGGGACUUGUGACUAGAAGGCACUAACG [JR_Ex5_Sub023] (Eterna round: R97, puzzle: Exclusion 5) | 29.1 | 17.4 | – | – | – | –
CGUCGACAUGUAGGAUAUCUGCACGUUUAGUGCAGAGAAGGACAUGAGGAUCACCCAUGUAGAUCACGACGAAUUAAUUUAAUU [ENG1/6-C2] (Eterna round: R96, puzzle: Exclusion NG 1) | 24 | 1540 | – | – | – | 205
CGUCUGUAAGGAUAUGGUAGCAUUUACAUGAGGAUCACCCAUGUUACAUGGGACUAGUGACUAGAAGGUACGAACG [EX5 #54] (Eterna round: R97, puzzle: Exclusion 5) | 106 | 142 | – | – | – | –
CGUGACUCAGGAUAUCUAUAGUAUCACAUGAGGAUCACCCAUGUCCAGCGAAAGCUGGAGGGAGAAGGGAGUCACG [Fiskers Ex 5 - 42] (Eterna round: R96, puzzle: Exclusion 5) | 74.1 | 188 | – | – | – | 230
CGUGACUCAGGAUAUCUAUAGUAUCACAUGAGGAUCACCCAUGUCCAGCGAAAGCUGGAGGGAGAAGGGAGUCACG [Fiskers Ex 5 - 42] (puzzle: Exclusion 5) | – | – | 130 | 71.3 | 229 | –
CGUGACUCAGGAUAUGUAUAAUAUCACAUGAGGAUCACCCAUGUCCAGCGAAAGCUGGAAGCAGAAGGGAGUCACG [Fiskers Ex 5 - 39] (puzzle: Exclusion 5) | – | – | 41.6 | 85.1 | 111 | –
CGUGACUGAGGAUAUCUAUGAUAUCACAUGAGGAUCACCCAUGUCCAGCGAAAGCUGGAGGGAGAAGGCAGUCACG [Fiskers Ex 5 - 30] (puzzle: Exclusion 5) | – | – | 220 | 61.5 | 185 | –
CGUGACUGAGGAUAUCUAUGGUAUCACAUGAGGAUCACCCAUGUCCAGCGAAAGCUGGAGGGAGAAGGCAGUCACG [Fiskers Ex 5 - 32] (puzzle: Exclusion 5) | – | – | 186 | 117 | 250 | –
CGUGCGUAUGUGAGGAUAUGCUGGUCCUUGGAUCAGCAGAAGGCACAUGAGGAUCACCCAUGUGGUGUCGUACA [salish99_Bmod_Ex4_016] (puzzle: Brourd's mod of Exclusion 4) | – | – | 198 | – | – | –
CGUGCGUAUGUGAGGAUAUGCUGGUCCUUGGCUCGGCAGAAGGCACAUGAGGAUCACCCAUGUGGUGUCGUACA [salish99_Bmod_ex4_070] (puzzle: Brourd's mod of Exclusion 4) | – | – | 69.4 | – | – | –

Sequence | apparent KD of MS2 coat protein (input ligand: FMN 200 uM) [nM] | apparent KD of MS2 coat protein (input ligand: none) [nM] | apparent KD of MS2 coat protein [1] [nM] | apparent KD of MS2 coat protein [2] [nM] | apparent KD of MS2 coat protein [3] [nM] | apparent KD of MS2 coat protein [4] [nM]
CGUGGAUGAAAGGAUAUUGAGGUCUGACUGCCACAAGAAGGUUCAACAUGAGGAUCACCCAUGUCUGAUCCUAA [Xeanorti] (Eterna round: R97, puzzle: Exclusion 6) | 47.4 | 14.2 | – | – | – | –
CGUGUCUUUUACGUGAGUGGUGGGUGCAACAGGUGGGUUACAUGAGGAUCACCCAUGUCCUCACUUGCUCGUCUUUU [Grok-var2-08] (puzzle: Sensor v3, turn-off variant 2) | – | – | 53.5 | 76.7 | 69.8 | –
CGUUGAUGAGGAUAUCGAUGUUAGUACAUGAGGAUCACCCAUGUUAUCCAAGUGUCGGAUCGAGAAGGUAUUGGAC [LRO-Ex5-19] (puzzle: Exclusion 5) | – | – | 241 | – | – | –
CUAGAUCUUCGGAUCUAGUACAUGAGGAUCACCCAUGUGACGAGUUGAUCCUCAUACAAGCUUUUUGCUCGUCUUAU [Sensor v3 - Turn-off variant 1 - 16] (puzzle: Sensor v3, turn-off variant 1) | – | – | 21.3 | 19.3 | 11.9 | –
CUAGCGAUUGUAGGAUAUCGGACUGUUUCAGUCUGAGAAGGACAUGAGGAUCACCCAUGUGAAGGAUCGUGAGAUCCACGCUAG [JL ENG1 3.79] (Eterna round: R96, puzzle: Exclusion NG 1) | 112 | 22 | – | – | – | 17.9
CUAUGAGUAGGAUAUGAGCCAAAAUACAUGAGGAUCACCCAUGUCGGGUUCAUGGAGGGCUCAGAAGGAUUCAAUA [Exclusion 5 - Laarte Mod2] (Eterna round: R97, puzzle: Exclusion 5) | 59.8 | 17.1 | – | – | – | –
CUAUUGUGAGGAUAUCAGUAGUAGAACAAUAGUACUACUACUGAGAAGGCACAUGAGGAUCACCCAUGUUCCUC [Fiskers Ex 4 Super stable 44 mod 7] (puzzle: Exclusion 4) | – | – | 57.3 | – | – | –
CUCCGCGGAGGAUAUGCAGCCUUCGACAUGAGGAUCACCCAUGUACAAGAUCCCUUGUCGGCAGAAGGCCGGGAGA [Usena] (Eterna round: R97, puzzle: Exclusion 5) | 114 | 448 | – | – | – | –
CUCCGGCGUGUAGGAUAUGGUUCCGAUUAGGAUCCAGAAGGACAUGAGGAUCACCCAUGUACAUGUCGUCGGUCGUCACCGGGC [salish99_ExNG1_r04_211] (Eterna round: R96, puzzle: Exclusion NG 1) | 107 | 29.4 | – | – | – | 24.1
CUCCGGCGUGUAGGAUAUGGUUCCGUUUUGGUUCCAGAAGGACAUGAGGAUCACCCAUGUACAUGUCGUCGGUCGUCACCGGGC [salish99_ExNG1_r04_214] (Eterna round: R96, puzzle: Exclusion NG 1) | 104 | 29.8 | – | – | – | 22.2
CUCCUCAUGACGCCCAACCACAUGAGGAUCACCCAUGUGCAGGCUUUUUGUCGUCUUAUAAUAAAACCGAGGAUGCG [Edusveti] (puzzle: Sensor v3, turn-off variant 1) | – | – | 49.4 | 13.3 | 13 | –
CUCCUCAUGGCGCCUAAACACAUGAGGAUCACCCAUGUACAGGCUUUUUGCCGUCUUAUAAUAAAACCGAGGAGGCG [Atrelele] (puzzle: Sensor v3, turn-off variant 1) | – | – | 146 | 21 | 23.6 | –
CUCGUGCAGCAAAGCUGUACGAGUACAUGAGGAUCACCCAUGUAGGAUAUGGUACGCAAAGCGUGCCAGAAGGACGUGAGUUAG [Mat - Exclusion NG 3 - Mod of JL - D95] (Eterna round: R96, puzzle: Exclusion NG 3) | 171 | 59 | – | – | – | 37.6
CUCGUGCAGCAAAGCUGUACGAGUACAUGAGGAUCACCCAUGUAGGAUAUGGUACGCUUUGCGUGCUAGAAGGACGUGUGUAUG [Mat - Exclusion NG 3 - Mod of JL - D90] (Eterna round: R96, puzzle: Exclusion NG 3) | 75.4 | 39.6 | – | – | – | 26.9
CUCUUGUCAGGAUAUCAACGCCGCCCACACAGGCGGCGAAAUGAGAAGGGACAUGAGGAUCACCCAUGUUAAAA [Tiaonbi] (puzzle: Exclusion 4) | – | – | 86.1 | 24.3 | 168 | –
